T1: RMI1-RMI2 (Homo sapiens, UniProt Q9H9A7;Q96E14 1-625;1-147)
T1 sequence 1: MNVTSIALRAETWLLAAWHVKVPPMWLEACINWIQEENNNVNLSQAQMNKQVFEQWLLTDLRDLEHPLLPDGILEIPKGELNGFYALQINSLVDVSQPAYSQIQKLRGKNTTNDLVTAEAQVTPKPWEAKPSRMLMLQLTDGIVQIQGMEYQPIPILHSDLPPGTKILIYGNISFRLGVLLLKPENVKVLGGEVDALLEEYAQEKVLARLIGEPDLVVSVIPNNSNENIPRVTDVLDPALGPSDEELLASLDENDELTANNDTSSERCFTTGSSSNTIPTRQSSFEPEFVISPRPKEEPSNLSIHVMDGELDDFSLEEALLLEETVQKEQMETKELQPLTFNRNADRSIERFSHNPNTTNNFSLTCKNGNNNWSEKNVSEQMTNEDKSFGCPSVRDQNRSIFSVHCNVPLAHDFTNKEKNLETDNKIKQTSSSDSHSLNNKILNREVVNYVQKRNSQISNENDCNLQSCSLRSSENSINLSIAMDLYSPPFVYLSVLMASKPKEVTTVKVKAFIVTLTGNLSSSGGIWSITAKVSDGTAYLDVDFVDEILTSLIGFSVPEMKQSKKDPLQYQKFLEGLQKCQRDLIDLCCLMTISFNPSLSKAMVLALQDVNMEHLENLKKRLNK
T1 sequence 2: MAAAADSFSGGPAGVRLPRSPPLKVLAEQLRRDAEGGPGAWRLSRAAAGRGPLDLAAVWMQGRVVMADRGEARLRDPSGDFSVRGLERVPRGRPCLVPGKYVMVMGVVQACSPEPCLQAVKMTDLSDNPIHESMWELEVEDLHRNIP

T2: Topo IIIα (Homo sapiens, UniProt Q13472 1-1001)
T2 sequence: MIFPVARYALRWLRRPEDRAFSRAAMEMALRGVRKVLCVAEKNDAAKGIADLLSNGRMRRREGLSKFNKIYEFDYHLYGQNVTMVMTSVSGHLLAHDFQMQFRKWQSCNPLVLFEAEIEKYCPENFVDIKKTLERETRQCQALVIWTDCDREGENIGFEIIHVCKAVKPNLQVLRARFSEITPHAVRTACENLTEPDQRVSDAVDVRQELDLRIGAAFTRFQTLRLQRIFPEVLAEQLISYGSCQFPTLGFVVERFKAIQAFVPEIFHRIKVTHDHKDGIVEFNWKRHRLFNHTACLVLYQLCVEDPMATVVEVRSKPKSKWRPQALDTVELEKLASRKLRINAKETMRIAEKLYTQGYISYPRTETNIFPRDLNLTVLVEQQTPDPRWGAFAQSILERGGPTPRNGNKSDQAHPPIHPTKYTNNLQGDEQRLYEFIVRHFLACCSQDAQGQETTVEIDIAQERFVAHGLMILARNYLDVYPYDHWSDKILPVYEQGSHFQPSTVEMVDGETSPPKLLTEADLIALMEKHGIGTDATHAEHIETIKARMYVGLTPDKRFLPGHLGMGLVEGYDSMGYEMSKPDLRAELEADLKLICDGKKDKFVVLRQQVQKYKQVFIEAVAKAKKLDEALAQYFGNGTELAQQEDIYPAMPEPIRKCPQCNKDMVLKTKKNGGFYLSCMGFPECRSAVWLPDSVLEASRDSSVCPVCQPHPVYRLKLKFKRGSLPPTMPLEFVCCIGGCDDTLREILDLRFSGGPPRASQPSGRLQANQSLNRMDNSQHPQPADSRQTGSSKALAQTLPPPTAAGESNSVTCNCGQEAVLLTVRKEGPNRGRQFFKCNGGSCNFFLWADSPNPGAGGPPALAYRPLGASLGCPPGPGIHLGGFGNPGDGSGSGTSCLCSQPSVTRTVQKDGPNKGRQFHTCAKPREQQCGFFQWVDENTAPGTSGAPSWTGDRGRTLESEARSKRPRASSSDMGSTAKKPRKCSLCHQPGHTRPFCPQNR

B1: 80-mer dsDNA (dsDNA)
DNA 1: TTGATAAGAGGTCATTTGAATTCATGGCTTAGAGCTTAATTGCTGAATCTGGTGCTGGGATCCAACATGTTTTAAATATG
DNA 2: CATATTTAAAACATGTTGGATCCCAGCACCAGATTCAGCAATTAAGCTCTAAGCCATGAATTCAAATGACCTCTTATCAA
B2: 80-mer dsDNA, one end blocked by biotin-streptavidin (dsDNA)
DNA 1: B1 DNA 1
DNA 2: B1 DNA 2
modifications: 5' biotin on one strand (PSOL7475 or PSOL6214; which one not stated), streptavidin bound

Legend:
RMI1-RMI2 = biological target: T1, RMI1-RMI2; test: EMSA; 25-100 nM protein; EMSA: 35 mM Tris-HCl pH 7.5, 1 mM DTT, 100 ng/μl BSA, 2 mM MgCl2, 100 mM NaCl, 25°C, 20 min, 5 nM DNA ends (Mg2+ and ATP omitted in Figure 3B); settings: protein: recombinant; copies: 1;1; label: 32P; blunt
Topo IIIα [1] = biological target: T2, Topo IIIα; test: EMSA; 25-100 nM protein; two discrete complexes; EMSA: 35 mM Tris-HCl pH 7.5, 1 mM DTT, 100 ng/μl BSA, 2 mM MgCl2, 100 mM NaCl, 25°C, 20 min, 5 nM DNA ends (Mg2+ and ATP omitted in Figure 3B); settings: protein: recombinant; label: 32P; blunt
BLM;DNA2-D277A = BLM;DNA2-D277A (Homo sapiens;Homo sapiens, UniProt P54132;P51530 1-1417;1-1060, |D277A); test: EMSA; 7.5-15 nM BLM with 10 or 20 nM DNA2-D277A; binding enhanced over BLM alone; no ATP, no Mg2+; EMSA: 35 mM Tris-HCl pH 7.5, 1 mM DTT, 100 ng/μl BSA, 2 mM MgCl2, 100 mM NaCl, 25°C, 20 min, 5 nM DNA ends (Mg2+ and ATP omitted in Figure 3B); settings: protein: recombinant;recombinant; copies: 1;1; label: 32P; blunt
Chain of BLM;DNA2-D277A (P54132 whole entry, chain 1 of 2): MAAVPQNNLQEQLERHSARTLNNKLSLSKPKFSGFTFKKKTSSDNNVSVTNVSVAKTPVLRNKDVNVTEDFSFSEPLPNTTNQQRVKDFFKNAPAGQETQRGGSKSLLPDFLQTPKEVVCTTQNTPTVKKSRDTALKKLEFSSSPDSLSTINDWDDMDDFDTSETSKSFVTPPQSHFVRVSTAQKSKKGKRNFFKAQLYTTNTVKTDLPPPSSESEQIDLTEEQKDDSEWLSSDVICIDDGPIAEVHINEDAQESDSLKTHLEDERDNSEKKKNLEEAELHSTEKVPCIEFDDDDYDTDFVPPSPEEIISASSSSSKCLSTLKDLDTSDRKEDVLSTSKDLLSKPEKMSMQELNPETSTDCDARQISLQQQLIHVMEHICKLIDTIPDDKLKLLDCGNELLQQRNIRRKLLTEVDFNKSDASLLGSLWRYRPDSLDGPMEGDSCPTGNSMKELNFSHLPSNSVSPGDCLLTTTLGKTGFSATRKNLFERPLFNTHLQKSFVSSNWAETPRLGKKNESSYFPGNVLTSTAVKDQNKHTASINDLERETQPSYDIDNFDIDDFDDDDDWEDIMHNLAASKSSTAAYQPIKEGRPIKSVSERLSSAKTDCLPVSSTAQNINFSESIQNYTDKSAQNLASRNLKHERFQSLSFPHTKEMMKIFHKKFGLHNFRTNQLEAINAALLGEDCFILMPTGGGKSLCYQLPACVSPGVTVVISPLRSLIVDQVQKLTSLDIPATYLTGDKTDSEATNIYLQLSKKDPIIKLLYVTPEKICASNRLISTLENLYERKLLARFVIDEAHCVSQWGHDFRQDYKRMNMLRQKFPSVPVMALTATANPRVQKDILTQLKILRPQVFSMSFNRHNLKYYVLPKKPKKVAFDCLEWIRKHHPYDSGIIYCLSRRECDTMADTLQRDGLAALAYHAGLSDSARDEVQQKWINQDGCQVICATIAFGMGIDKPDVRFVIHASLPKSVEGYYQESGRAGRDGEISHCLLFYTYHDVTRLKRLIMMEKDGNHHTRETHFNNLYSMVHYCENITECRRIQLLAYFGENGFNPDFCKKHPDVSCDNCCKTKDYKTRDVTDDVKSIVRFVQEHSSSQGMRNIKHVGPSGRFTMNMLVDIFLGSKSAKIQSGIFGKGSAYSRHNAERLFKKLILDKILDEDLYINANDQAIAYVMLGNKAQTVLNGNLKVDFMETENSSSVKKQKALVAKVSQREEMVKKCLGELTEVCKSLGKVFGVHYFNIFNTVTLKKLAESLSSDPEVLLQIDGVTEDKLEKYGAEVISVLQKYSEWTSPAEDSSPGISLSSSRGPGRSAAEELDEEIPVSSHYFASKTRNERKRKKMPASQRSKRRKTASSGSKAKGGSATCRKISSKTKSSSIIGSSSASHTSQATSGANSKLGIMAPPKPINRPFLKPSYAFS
Chain of BLM;DNA2-D277A (P51530 whole entry D277A, chain 2 of 2): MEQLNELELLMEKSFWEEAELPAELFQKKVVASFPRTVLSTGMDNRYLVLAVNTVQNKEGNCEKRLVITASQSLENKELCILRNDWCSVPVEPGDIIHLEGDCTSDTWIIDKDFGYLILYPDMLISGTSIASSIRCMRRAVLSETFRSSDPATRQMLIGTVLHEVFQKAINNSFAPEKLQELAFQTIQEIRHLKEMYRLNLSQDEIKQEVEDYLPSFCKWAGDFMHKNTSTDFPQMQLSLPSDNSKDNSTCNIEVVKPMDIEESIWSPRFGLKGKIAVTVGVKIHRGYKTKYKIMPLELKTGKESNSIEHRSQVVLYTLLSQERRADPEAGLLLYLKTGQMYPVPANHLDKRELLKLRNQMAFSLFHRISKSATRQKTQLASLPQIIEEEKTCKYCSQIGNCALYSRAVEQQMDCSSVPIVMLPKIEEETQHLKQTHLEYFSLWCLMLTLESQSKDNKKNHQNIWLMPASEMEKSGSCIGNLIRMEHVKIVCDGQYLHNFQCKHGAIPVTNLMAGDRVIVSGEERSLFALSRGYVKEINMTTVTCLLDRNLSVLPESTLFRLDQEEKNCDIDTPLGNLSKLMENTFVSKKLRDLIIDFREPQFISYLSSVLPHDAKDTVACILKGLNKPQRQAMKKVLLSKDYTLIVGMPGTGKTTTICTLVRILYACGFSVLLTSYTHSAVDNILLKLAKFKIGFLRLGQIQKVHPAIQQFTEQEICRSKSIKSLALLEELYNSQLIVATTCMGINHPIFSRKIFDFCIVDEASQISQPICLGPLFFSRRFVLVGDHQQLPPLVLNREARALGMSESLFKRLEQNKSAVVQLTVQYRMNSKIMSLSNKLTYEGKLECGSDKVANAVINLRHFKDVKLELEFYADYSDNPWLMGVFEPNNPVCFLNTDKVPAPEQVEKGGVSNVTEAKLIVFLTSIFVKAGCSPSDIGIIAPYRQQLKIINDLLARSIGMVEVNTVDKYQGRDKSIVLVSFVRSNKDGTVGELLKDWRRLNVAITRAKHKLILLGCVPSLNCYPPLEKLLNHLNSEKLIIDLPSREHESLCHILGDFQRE

Topo IIIα [2] = biological target: T2, Topo IIIα; test: EMSA; 25-100 nM protein; streptavidin on one end; shifted efficiently; EMSA: 35 mM Tris-HCl pH 7.5, 1 mM DTT, 100 ng/μl BSA, 2 mM MgCl2, 100 mM NaCl, 25°C, 20 min, 5 nM DNA ends (Mg2+ and ATP omitted in Figure 3B); settings: protein: recombinant; label: 32P; blunt

Row | Binder | binding result (RMI1-RMI2) | binding result (Topo IIIα [1]) | binding result (BLM;DNA2-D277A) | binding result (Topo IIIα [2])
1 | B1 | no binding | binds | binds | –
2 | B2 | – | – | – | binds

From publication PMC4176181, “Multifaceted role of the Topo IIIα–RMI1-RMI2 complex and DNA2 in the BLM-dependent pathway of DNA break end resection”
